# In patent US20200173986A1:
# Molecular target: endogenous SNAP25 in total cell lysate
# Test: sandwich ELISA with total cell lysate, fusion supernatant
# Chain of endogenous SNAP25 in total cell lysate (P60879 whole entry, the tested form may be a part): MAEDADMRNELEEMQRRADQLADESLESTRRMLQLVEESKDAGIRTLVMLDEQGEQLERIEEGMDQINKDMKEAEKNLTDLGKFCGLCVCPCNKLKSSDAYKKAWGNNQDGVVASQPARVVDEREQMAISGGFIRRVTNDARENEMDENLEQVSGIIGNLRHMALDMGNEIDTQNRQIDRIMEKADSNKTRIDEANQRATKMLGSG
binder,measurement,value
"B4 IgG (antibody, V domains shown) VH: EVKLVESGGGLVKPGGSLKLSCAASGFTFSNYGMSWVRQTPEKRLEWVATISSGGSYTYYPDSVKGRFTISRDNAKNTLYLQMSSLRSEDTAMYYCARHEGGGNPYFDYWGQGTTLTVSS VL: DVLMTQTPLSLPVSLGDQASISCRSSQSLVHSNGNTYLHWYLQKPGQSPKLLIYKVSNRFSGVPDRFSGSGSGTDFTLKISRVEAEDLGVYFCSQNTLVPWTFGGGTKLEIK",ELISA signal (A450),0.1
